The supplement of paper PMC10126150
± gives the standard deviation of the averaged measurements.

Tested on: ATP
Assay: switch fluorescence ratio, 500 uM ATP over buffer (Cy3 cluster intensity, sum of 5 cycles each) (fold (ratio)); higher = stronger signal-on switching upon ATP binding; sequences stand for … in TCGTCGGCAGCGTCAGATGTGTATAAGAGACAGTTTTTTTTTTTTTTTTTTTTTTTTT…TC
Details: aptamer strand: ATP DNA aptamer (quencher-CACCTGGGGGAGTATTGCGGAGGAAGG + anchor), 100 nM annealed; ATP concentration: 500 uM
Method in brief: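 Clusters carrying Cy3-labelled switching strands on a modified Illumina MiSeq flow-cell were annealed to 100 nM quencher-labelled ATP aptamer and imaged in selection buffer. They were imaged again after 15 min with 500 uM ATP at 22 °C, over five buffer/ATP cycles with NaOH stripping and re-annealing in between. For each cluster, the fluorescence ratio is the summed Cy3 intensity of the target cycles divided by that of the buffer cycles, averaged per switch-domain sequence. Clusters outside 100-1000 RFU were left out.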
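Note: ATP exposure 15 min at 22 °C before imaging.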

Sequence | switch fluorescence ratio
CGAGGTAGGG | 1.01 ± 0.073
CGAGGTGGCT | 1.01 ± 0.028
CGAGGTGGGA | 0.9972 ± 0.0025
CGAGTACTGT | 0.994 ± 0.025
CGAGTAGAGG | 1.02 ± 0.026
CGAGTAGTCA | 0.994 ± 0.018
CGAGTATGGG | 0.9859 ± 0.0011
CGAGTATTAC | 1.09 ± 0.04
CGAGTCCAGG | 6.48 ± 0.097
CGAGTCTTTG | 1.03 ± 0.059
CGAGTGGGTG | 0.996 ± 0.018
CGAGTGTCAG | 0.976 ± 0.028
CGAGTTATTG | 1.08 ± 0.094
CGAGTTCGTT | 1 ± 0.025
CGATAAAGAG | 1.02 ± 0.013
CGATAACGTC | 0.992 ± 0.011
CGATAATTTG | 0.994 ± 0.015
CGATACGATG | 0.995 ± 0.011
CGATACTTGA | 0.99 ± 0.038
CGATAGCAGC | 2.43 ± 0.52
CGATAGGGGG | 1.01 ± 0.022
CGATAGTTAG | 0.986 ± 0.044
CGATATAAGT | 1 ± 0.025
CGATATAGAC | 1.06 ± 0.013
CGATATCCAC | 1.07 ± 0.013
CGATCACCTG | 1.02 ± 0.063

Sequence | switch fluorescence ratio
CGATCCGGCG | 1.08 ± 0.16
CGATCCTATG | 0.969 ± 0.045
CGATCGGATG | 1.03 ± 0.023
CGATCTAGTA | 0.97 ± 0.015
CGATGAGGGT | 1.01 ± 0.029
CGATGGACGG | 1.01 ± 0.033
CGATGGGCTA | 1.02 ± 0.056
CGATGGGTGC | 0.946 ± 0.015
CGATGGTAGA | 1.03 ± 0.027
CGATGGTGGC | 1.073 ± 0.0067
CGATGGTGGG | 0.987 ± 0.0088
CGATGTCACG | 1 ± 0.033
CGATGTGCCC | 0.983 ± 0.024
CGATGTGCGG | 1.03 ± 0.062
CGATGTTGGG | 0.99 ± 0.018
CGATGTTTTC | 1.03 ± 0.073
CGATTAACTC | 1.03 ± 0.012
CGATTAGGGA | 1 ± 0.028
CGATTAGGTG | 1.193 ± 0.0052
CGATTAGTTA | 0.998 ± 0.023
CGATTATCTT | 1.01 ± 0.011
CGATTATGTA | 0.9667 ± 0.0078
CGATTCAACG | 1.02 ± 0.012
CGATTGGAGT | 0.9864 ± 0.0058
CGATTGGGGC | 0.992 ± 0.013
CGATTGGGTC | 0.999 ± 0.013

Sequence | switch fluorescence ratio
CGATTGTGGG | 0.9962 ± 0.0092
CGATTTAGAG | 0.988 ± 0.019
CGATTTAGCT | 0.988 ± 0.037
CGATTTCCTA | 0.987 ± 0.015
CGCACGAGGC | 1.23 ± 0.05
CGCAGCCAGG | 3.33 ± 0.27
CGCATAGCTT | 1.12 ± 0.021
CGCATCGTAA | 1.074 ± 0.0044
CGCATGGAGT | 1.04 ± 0.015
CGCATGGCCT | 1.04 ± 0.072
CGCATGTAAC | 3.43 ± 0.81
CGCATGTTTT | 1.06 ± 0.1
CGCATTGGGG | 1.13 ± 0.037
CGCATTGTGA | 1.02 ± 0.063
CGCCAAATG | 1.033 ± 0.0019
CGCCAACAAC | 1.78 ± 0.036
CGCCAGGGGA | 1.43 ± 0.59
CGCCGAAGGG | 0.98523 ± 0.00014
CGCCGGACAT | 1.04 ± 0.0027
CGCCGGGGAT | 1.004 ± 0.002
CGCCGGTTGG | 0.997 ± 0.014
CGCCGTCTCA | 1.02 ± 0.042
CGCCGTTGCG | 0.989 ± 0.065
CGCCTAACGA | 1.08 ± 0.024
CGCCTGACAC | 1.26 ± 0.0035
CGCCTTTACA | 1.02 ± 0.029

Sequence | switch fluorescence ratio
CGCCTTTACC | 1.18 ± 0.013
CGCGACAACA | 0.999 ± 0.031
CGCGAGAATA | 1.01 ± 0.084
CGCGAGATAT | 1.03 ± 0.043
CGCGAGGACT | 1.27 ± 0.11
CGCGATCTGT | 1.18 ± 0.046
CGCGCCGGGC | 1.03 ± 0.057
CGCGCCTATC | 1.11 ± 0.02
CGCGCTACTT | 1.73 ± 0.039
CGCGGAACTG | 1.09 ± 0.016
CGCGGACACG | 1.01 ± 0.048
CGCGGGAAAA | 1.01 ± 0.099
CGCGGGAATG | 1.05 ± 0.033
CGCGGGGGGG | 1 ± 0.025
CGCGGTGTCC | 1.02 ± 0.011
CGCGTCAACG | 1.01 ± 0.027
CGCGTCATGA | 1.02 ± 0.0043
CGCGTCTGGG | 1.01 ± 0.042
CGCGTGATGG | 1 ± 0.021
CGCGTGATTT | 1.06 ± 0.058
CGCGTGGCTG | 1 ± 0.019
CGCGTGGGGG | 1.03 ± 0.081
CGCGTTGTTG | 1.03 ± 0.012
CGCTAATTGG | 1.09 ± 0.014
CGCTACGGTT | 1.042 ± 0.0016
CGCTAGGGTG | 1.115 ± 0.0032

Sequence | switch fluorescence ratio
CGCTAGGTGT | 2.33 ± 0.76
CGCTATATGG | 1.32 ± 0.047
CGCTCATTTG | 0.97 ± 0.016
CGCTCTAATA | 1.058 ± 0.01
CGCTGAATTT | 0.975 ± 0.03
CGCTGAGTGC | 1.08 ± 0.034
CGCTGGATGG | 0.985 ± 0.0075
CGCTGGGGGC | 1.03 ± 0.016
CGCTGGTGGG | 1.01 ± 0.029
CGCTGTATCG | 0.996 ± 0.043
CGCTGTCACG | 1.0556 ± 0.00068
CGCTTAAAGT | 1.03 ± 0.05
CGCTTAGATT | 0.997 ± 0.025
CGCTTCCGGG | 1.37 ± 0.059
CGCTTCGGTT | 0.963 ± 0.032
CGCTTCTGGG | 0.98 ± 0.011
CGCTTGAAAT | 1.05 ± 0.018
CGCTTGTTCG | 1.01 ± 0.027
CGCTTTCTTT | 1.03 ± 0.041
CGCTTTGATA | 0.991 ± 0.03
CGGAAACAAA | 1.01 ± 0.075
CGGAAACGTG | 1.01 ± 0.028
CGGAACAGCA | 1.08 ± 0.051
CGGAAGCGGG | 1.02 ± 0.038
CGGAAGGAAG | 0.946 ± 0.036
CGGAAGGGAG | 0.996 ± 0.015

Sequence | switch fluorescence ratio
CGGAAGTGTG | 0.981 ± 0.039
CGGAAGTTAT | 1.01 ± 0.04
CGGAATATGG | 1.0484 ± 0.001
CGGAATTTCC | 1.09 ± 0.048
CGGACACTTT | 1.019 ± 0.0091
CGGACAGGAG | 0.98 ± 0.051
CGGACCAAGG | 1 ± 0.077
CGGACCATTT | 1.04 ± 0.024
CGGACTAGCG | 0.944 ± 0.032
CGGAGAGAGC | 0.993 ± 0.011
CGGAGATGGC | 1.05 ± 0.038
CGGAGCGCGT | 0.991 ± 0.019
CGGAGGAGCA | 0.968 ± 0.061
CGGAGGCGGT | 1.02 ± 0.047
CGGAGGGAGG | 0.928 ± 0.091
CGGAGGGTAC | 1.61 ± 0.08
CGGAGTGGGG | 1.01 ± 0.012
CGGAGTTTTG | 1.01 ± 0.027
CGGATACGCC | 1.09 ± 0.028
CGGATATGGT | 1 ± 0.013
CGGATGCGGT | 1.013 ± 0.0075
CGGATGGGGG | 1.01 ± 0.046
CGGATGGGTG | 0.996 ± 0.021
